Patent US6800467B1, “Polypeptides having aminopeptidase activity and nucleic acids encoding same” (Novozymes Biotech, Inc., priority 1997, dated 2004)

Key:
Format in all cases: biochemical
[1] = Temperature stability of the aminopeptidase II, residual activity on Leu-pNA
Procedure: The temperature stability of the aminopeptidase II was determined using the following protocol: 480 μl of 50 mM sodium phosphate buffer pH 7.5 was preincubated at 37°, 45°, 55°, 60°, 65°, 70°, and 75° C. for 30 minutes in a 1.7 ml Eppendorf tube. Then 20 μl of purified aminopeptidase II was added and the sample was then incubated for an additional 20 minutes. The samples were then placed on ice. Once the incubations were completed for all the temperatures, the samples were then assayed for activity using Leu-pNA as substrate.
The assay was performed by mixing 100 μl of the incubation mixtures for the various temperatures with 100 μl of 2 mg/ml Leu-pNA in 50 mM sodium phosphate pH 7.5 buffer at ambient temperature. The absorbance at 405 nm was monitored for 5 minutes.

[2] = pH optimum using Ala-pNA as substrate in universal buffer
Procedure: The purified aninopeptidase II described in Example 15 was used in the following characterizations.
The Ala-pNA substrate was prepared by dissolving 100 mg of Ala-pNA in 1 ml of DMSO and adding 20 μl of the Ala-pNA/DMSO solution to 980 μl of the universal buffer at the various pH values. The assay was initiated by adding a 15 μl aliquot of the aminopeptidase II in 50 mM sodium phosphate pH 7.5 buffer to 200 μl of 2 mg/ml Ala-pNA at the various pH values at ambient temperature. The change in absorbance at 405 nm was monitored for 5 minutes. Autohydrolysis of the substrate as a control was determined by adding 15 μl of 50 mM sodium phosphate pH 7.5 buffer to 200 μl of 2 mg/ml Ala-pNA at the various pH values.

soy bean meal tablets = assay: Degree of hydrolysis (DH) assay, soy; conditions: vs 3 LAPUs FLAVOURZYME alone, 50° C., 18 hours
Procedure: The purified aminopeptidase II described in Example 11 was tested in degree of hydrolysis assays using soy, wheat gluten, and casein as substrates according to the following procedure.
The degree of hydrolysis (DH) assays were performed at 50° C. for 18 hours as a mini-hydrolysis on a 10 ml scale using soy bean meal tablets, wheat gluten meal tablets, and sodium-caseinate at a 2% concentration adjusted to pH 7, if necessary, with no pH adjustment during hydrolysis. The hydrolysates were inactivated at 85° C. for 3 minutes in a waterbath. The enzymes used were FLAVOURZYME™ and aminopeptidase II. The enzymes were dosed as follows. […] Upon hydrolysis, p-nitroanilide is liberated turning the solution yellow which is monitored 405 nm.
The degree of hydrolysis (DH), as defined as described by Adler-Nissen (1986, Enzymic Hydrolysis of Food Proteins, Elsevier Applied Science Publishers), was determined by reaction of the supernatant with OPA (ortho-phtaldialdehyde, Sigma Chemical Co., St. Louis, Mo.) according to the following procedure The hydrolysate was diluted 100-fold into distilled water. […] The solution was then shaken well and after 2 minutes exactly, the absorbance at 340 nm was measured and compared to the absorbance of a 0.95 mM L-serine (distilled water) solution after subtraction of the blank value (water reacted with OPA reagent). […]

B1: aminopeptidase II: Recombinant Aspergillus oryzae 1568 (ATCC 20386) aminopeptidase II, 496 amino acids (SEQ ID NO:2), produced in Aspergillus oryzae or Fusarium (protein)
chain: MRSLLWASLLSGVLAGRALVSPDEFPEDIQLEDLLEGSQQLEDFAYAYPERNRVFGGKAHDDTVNYLYEELKKTGYYDVYKQPQVHLWSNADQTLKVGDEEIEAKTMTYSPSVEVTADVAVVKNLGCSEADYPSDVEGKVALIKRGECPFGDKSVLAAKAKAAASIVYNNVAGSMAGTLGAAQSDKGPYSAIVGISLEDGQKLIKLAEAGSVSVDLWVDSKQENRTTYNVVAQTKGGDPNNVVALGGHTDSVEAGPGINDDGSGIISNLVIAKALTQYSVKNAVRFLFWTAEEFGLLGSNYYVSHLNATELNKIRLYLNFDMIASPNYALMIYDGDGSAFNQSGPAGSAQIEKLFEDYYDSIDLPHIPTQFDGRSDYEAFILNGIPSGGLFTGAEGIMSEENASRWGGQAGVAYDANYHAAGDNMTNLNHEAFLINSKATAFAVATYANDLSSIPKRNTTSSLHRRARTMRPFGKRAPKTHAHVSGSGCWHSQVEA
Percent activity relative to 37° C. ([1]; 20 minutes at 37° C., pH 7.5, no substrate (reference)): 100
Percent activity relative to 37° C. ([1]; 20 minutes at 45° C., pH 7.5, no substrate): 101
Percent activity relative to 37° C. ([1]; 20 minutes at 55° C., pH 7.5, no substrate): 99
Percent activity relative to 37° C. ([1]; 20 minutes at 60° C., pH 7.5, no substrate): 90
Percent activity relative to 37° C. ([1]; 20 minutes at 65° C., pH 7.5, no substrate): 73.7
Percent activity relative to 37° C. ([1]; 20 minutes at 70° C., pH 7.5, no substrate): 64.6
Percent activity relative to 37° C. ([1]; 20 minutes at 75° C., pH 7.5, no substrate): 46
pH of optimal activity ([2]; Ala-pNA as substrate, ambient temperature, enzyme of Example 15 (produced by Fusarium)): 9.5-10
Avg. Activity ([2]; pH 4.42, Ala-pNA, ambient temperature): 0 mOD/min
Relative Activity ([2]; pH 4.42, Ala-pNA, relative to pH 9.68): 0
Avg. Activity ([2]; pH 4.91, Ala-pNA, ambient temperature): 2 mOD/min
Relative Activity ([2]; pH 4.91, Ala-pNA, relative to pH 9.68): 0.006
Avg. Activity ([2]; pH 5.41, Ala-pNA, ambient temperature): 7.8 mOD/min
Relative Activity ([2]; pH 5.41, Ala-pNA, relative to pH 9.68): 0.024
Avg. Activity ([2]; pH 5.89, Ala-pNA, ambient temperature): 13.9 mOD/min
Relative Activity ([2]; pH 5.89, Ala-pNA, relative to pH 9.68): 0.043
Avg. Activity ([2]; pH 6.40, Ala-pNA, ambient temperature): 16.37 mOD/min
Relative Activity ([2]; pH 6.40, Ala-pNA, relative to pH 9.68): 0.051
Avg. Activity ([2]; pH 6.90, Ala-pNA, ambient temperature): 23.48 mOD/min
Relative Activity ([2]; pH 6.90, Ala-pNA, relative to pH 9.68): 0.0727
Avg. Activity ([2]; pH 7.27, Ala-pNA, ambient temperature): 41.24 mOD/min
Relative Activity ([2]; pH 7.27, Ala-pNA, relative to pH 9.68): 0.128
Avg. Activity ([2]; pH 7.59, Ala-pNA, ambient temperature): 69.15 mOD/min
Relative Activity ([2]; pH 7.59, Ala-pNA, relative to pH 9.68): 0.214
Avg. Activity ([2]; pH 8.03, Ala-pNA, ambient temperature): 145.6 mOD/min
Relative Activity ([2]; pH 8.03, Ala-pNA, relative to pH 9.68): 0.45
Avg. Activity ([2]; pH 8.62, Ala-pNA, ambient temperature): 245.99 mOD/min
Relative Activity ([2]; pH 8.62, Ala-pNA, relative to pH 9.68): 0.761
Avg. Activity ([2]; pH 9.25, Ala-pNA, ambient temperature): 306.97 mOD/min
Relative Activity ([2]; pH 9.25, Ala-pNA, relative to pH 9.68): 0.95
Relative Activity ([2]; pH 9.68, Ala-pNA (reference)): 1.0
Avg. Activity ([2]; pH 9.68, Ala-pNA, ambient temperature): 323.15 mOD/min
Avg. Activity ([2]; pH 10.51, Ala-pNA, ambient temperature): 270.8 mOD/min
Relative Activity ([2]; pH 10.51, Ala-pNA, relative to pH 9.68): 0.838
Avg. Activity ([2]; pH 10.95, Ala-pNA, ambient temperature): 197.86 mOD/min
Relative Activity ([2]; pH 10.95, Ala-pNA, relative to pH 9.68): 0.612
increase of absolute DH (soy bean meal tablets; 2 LAPUs aminopeptidase II added to 3 LAPUs FLAVOURZYME): at least 8%
increase of absolute DH (soy bean meal tablets; 5 LAPUs aminopeptidase II added to 3 LAPUs FLAVOURZYME): ≥ 10%
